Reference: patent publication US20200024330A1

Columns and labels:
Assay in all cases: cell-based or functional assay
[1] = target: HIV-1 Env of isolate MGRM-G-006 (subtype G) (HIV-1)
[2] = target: HIV-1 Env of isolate MGRM-G-011 (subtype G) (HIV-1)
[3] = target: HIV-1 Env of isolate MGRM-G-013 (subtype G) (HIV-1)
[4] = target: HIV-1 APV_6 Env (pseudovirus) (HIV-1)
[5] = target: HIV-1 Env of isolate 98CN009 (subtype CRF07_BC) (HIV-1)
[6] = target: HIV-1 Env of isolate MG RM-D-008 (subtype D) (HIV-1)
[7] = target: HIV-1 Env of isolate MG RM-D-012 (subtype D) (HIV-1)
[8] = target: HIV-1 Env of isolate MG RM-D-016 (subtype D) (HIV-1)
[9] = target: HIV-1 Env of isolate MG RM-D-020 (subtype D) (HIV-1)
[10] = target: HIV-1 Env of isolate MGRM-C-001 (pseudovirus) (HIV-1 isolate MGRM-C-001, subtype C)
[11] = target: HIV-1 Env of isolate MGRM-C-006 (pseudovirus) (HIV-1 isolate MGRM-C-006, subtype C)
[12] = target: HIV-1 Env of isolate MGRM-C-026 (pseudovirus) (HIV-1 isolate MGRM-C-026, subtype C)
[13] = target: HIV-1 Env of isolate MGRM-F1-004 (subtype F) (HIV-1)
[14] = target: HIV-1 Env of isolate MGRM-G-024 (HIV-1)
[15] = target: HIV-1 JR-CSF Env D185A (HIV-1 (isolate JR-CSF)) (UniProt P20871)
[16] = target: HIV-1 JR-CSF Env V127A (HIV-1 (isolate JR-CSF)) (UniProt P20871)
[17] = target: HIV-1 MGRM-Chronic-B-003 Env (pseudovirus) (HIV-1)
[18] = target: HIV-1 QH0692.42 Env (pseudovirus) (HIV-1)
[19] = target: HIV-1 SF162 Env (pseudovirus) (HIV-1) (UniProt P19550)
[20] = target: HIV-1 THR0.18 Env (pseudovirus) (HIV-1)
[21] = target: HIV-1 VLGCB3 Env (pseudovirus) (HIV-1)
[22] = target: HIV-1 92RW020 envelope protein (Env) on pseudovirus (HIV-1)
[23] = target: HIV-1 92RW024 envelope glycoprotein (Env) on pseudovirus (HIV-1)
[24] = target: HIV-1 93IN905 envelope glycoprotein (Env) on pseudovirus (HIV-1)
[25] = target: HIV-1 Env of isolate 92UG024 (HIV-1)
[26] = target: HIV-1 Env of isolate MGRM-D-013 (HIV-1)
[27] = target: HIV-1 Env of isolate MGRM-D-016 (clade D) (HIV-1)
[28] = target: HIV-1 Env of isolate MGRM-G-027 (clade G pseudovirus) (HIV-1)
[29] = target: HIV-1 Env of pseudovirus 6535.3 (Acute), clade B (HIV-1)
[30] = target: HIV-1 Env of pseudovirus THR0.18 (Acute), clade B (HIV-1)
[31] = target: HIV-1 IAVI-C22 envelope protein (Env) on pseudovirus (HIV-1)
[32] = target: HIV-1 MGRM-A-010 envelope glycoprotein (Env) on pseudovirus (HIV-1)
[33] = target: HIV-1 MGRM-C-012 Env (HIV-1)
[34] = target: HIV-1 MGRM-C-022 Env (HIV-1)

Chain of PGT-142 (4995_E20) (antibody) (VH): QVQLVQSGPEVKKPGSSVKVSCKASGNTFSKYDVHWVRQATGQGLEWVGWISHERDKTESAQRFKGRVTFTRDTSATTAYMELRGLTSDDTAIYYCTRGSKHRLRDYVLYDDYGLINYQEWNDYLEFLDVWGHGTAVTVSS
Chain of PGT-142 (4995_E20) (antibody) (VL): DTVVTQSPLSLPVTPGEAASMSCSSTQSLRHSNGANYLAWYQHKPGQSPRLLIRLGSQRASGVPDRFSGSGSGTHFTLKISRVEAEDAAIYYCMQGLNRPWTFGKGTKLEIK
Chain of PGT-144 (4970_K22) (antibody) (VH): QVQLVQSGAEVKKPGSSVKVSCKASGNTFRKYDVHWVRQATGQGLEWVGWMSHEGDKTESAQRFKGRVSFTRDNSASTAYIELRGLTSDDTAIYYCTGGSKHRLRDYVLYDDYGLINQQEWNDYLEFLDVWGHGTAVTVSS
Chain of PGT-144 (4970_K22) (antibody) (VL): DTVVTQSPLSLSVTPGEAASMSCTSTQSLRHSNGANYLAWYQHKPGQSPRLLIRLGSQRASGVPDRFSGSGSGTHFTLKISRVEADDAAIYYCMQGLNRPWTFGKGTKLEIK
Chain of PGT-141 (4964_G22; 4993_K13) (antibody) (VH): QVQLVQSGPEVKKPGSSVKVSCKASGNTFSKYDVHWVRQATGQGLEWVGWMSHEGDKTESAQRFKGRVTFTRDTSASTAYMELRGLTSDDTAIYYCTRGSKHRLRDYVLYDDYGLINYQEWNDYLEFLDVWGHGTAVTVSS
Chain of PGT-143 (4980_N08) (antibody) (VH): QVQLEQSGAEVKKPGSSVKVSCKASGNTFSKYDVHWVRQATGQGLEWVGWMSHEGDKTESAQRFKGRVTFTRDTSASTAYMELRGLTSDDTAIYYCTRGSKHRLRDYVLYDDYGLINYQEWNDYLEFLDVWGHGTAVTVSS
Chain of PGT-143 (4980_N08) (antibody) (VL): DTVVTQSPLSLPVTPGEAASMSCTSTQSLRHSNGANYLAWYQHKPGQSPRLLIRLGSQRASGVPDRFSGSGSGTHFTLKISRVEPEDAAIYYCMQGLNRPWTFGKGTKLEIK

Substance: PGT-141 (4964_G22; 4993_K13) (antibody)
- neutralization IC50 [1]: 0.043 µg/mL
- neutralization IC50 [2]: 0.086 µg/mL
- neutralization IC50 [3]: > 50 µg/mL

Substance: 5145_B14 (PGT-127) (antibody)
- IC50, pseudovirus neutralization [4]: 0.04 µg/mL
- IC50 (µg/mL), pseudovirus neutralization [5]: 0.09 µg/mL
- IC50 (µg/mL), pseudovirus neutralization [6]: > 50 µg/mL
- IC50 (µg/mL), pseudovirus neutralization [7]: > 50 µg/mL
- IC50 (µg/mL), pseudovirus neutralization [8]: > 50 µg/mL
- IC50 (µg/mL), pseudovirus neutralization [9]: 0.015 µg/mL
- IC50 (µg/mL) neutralization [10]: > 50 µg/mL
- IC50 (µg/mL) neutralization [11]: 0.319 µg/mL
- IC50 (µg/mL) neutralization [12]: 0.014 µg/mL
- IC50 (µg/mL), pseudovirus neutralization [13]: 0.068 µg/mL
- IC50, pseudovirus neutralization [14]: > 50 µg/mL
- Fold IC50 increase relative to wild-type [15]: 2 fold
- Fold IC50 increase relative to wild-type [16]: 2.5 fold
- IC50, pseudovirus neutralization [17]: 0.12 µg/mL
- IC50, pseudovirus neutralization [18]: 0.129 µg/mL
- IC50, pseudovirus neutralization [19]: 0.019 µg/mL
- IC50, pseudovirus neutralization [20]: > 50 µg/mL
- IC50, pseudovirus neutralization [21]: 0.022 µg/mL

Substance: 4838_L06 (PGT-121) (antibody)
- IC50, pseudovirus neutralization [4]: 0.018 µg/mL
- IC50 (µg/mL), pseudovirus neutralization [5]: 0.009 µg/mL
- IC50 (µg/mL), pseudovirus neutralization [6]: > 50 µg/mL
- IC50 (µg/mL), pseudovirus neutralization [7]: > 50 µg/mL
- IC50 (µg/mL), pseudovirus neutralization [8]: > 50 µg/mL
- IC50 (µg/mL), pseudovirus neutralization [9]: 0.01 µg/mL
- IC50 (µg/mL) neutralization [10]: 17.5 µg/mL
- IC50 (µg/mL) neutralization [11]: 0.017 µg/mL
- IC50 (µg/mL) neutralization [12]: 0.002 µg/mL
- IC50 (µg/mL), pseudovirus neutralization [13]: 1.67 µg/mL
- IC50, pseudovirus neutralization [17]: 0.011 µg/mL
- IC50, pseudovirus neutralization [18]: 0.823 µg/mL
- IC50, pseudovirus neutralization [19]: 0.005 µg/mL
- IC50, pseudovirus neutralization [20]: > 50 µg/mL
- IC50, pseudovirus neutralization [21]: 0.005 µg/mL

Substance: 1496_C09 (PG9) (TCN-109) (antibody)
- neutralization IC50 [22]: 0.0637 µg/mL
- IC50 (µg/ml), pseudovirus neutralization [23]: 0.18 µg/mL
- IC50 (ug/ml), neutralizing activity [24]: 0.048 µg/mL
- IC50 neutralization [24]: 0.048 µg/mL
- IC80, neutralization [24]: 0.308 µg/mL
- IC90 (pseudovirus neutralization) [24]: 1.89 µg/mL
- IC90, neutralization [24]: 0.981 µg/mL
- IC95, neutralization [24]: 3.31 µg/mL
- IC50 (µg/mL), pseudovirus neutralization [25]: 1.86 µg/mL
- IC50 (µg/mL), pseudovirus neutralization [26]: 0.021 µg/mL
- IC50 (µg/ml), pseudovirus neutralization [27]: 0.1 µg/mL
- neutralization IC50 [1]: 1.98 µg/mL
- neutralization IC50 [2]: 0.335 µg/mL
- IC50 (µg/ml), pseudovirus neutralization [28]: 0.01 µg/mL
- IC50 (µg/ml), pseudovirus neutralization [29]: 0.22 µg/mL
- IC50 (µg/ml), pseudovirus neutralization [30]: 12.4 µg/mL
- neutralization IC50 [31]: 24.9 µg/mL
- IC50 (ug/ml), neutralizing activity [32]: 0.0375 µg/mL
- IC50 neutralization [32]: 0.0375 µg/mL
- IC80, neutralization [32]: 0.121 µg/mL
- IC90, neutralization [32]: 0.242 µg/mL
- IC95, neutralization [32]: 0.456 µg/mL
- IC50 [33]: 0.24 µg/mL
- IC50 [34]: 0.19 µg/mL

Substance: 4877_D15 (PGT-122) (antibody)
- IC50 (ug/ml), neutralizing activity [24]: 0.0138 µg/mL
- IC50, pseudovirus neutralization [4]: 0.019 µg/mL
- IC50 (µg/mL), pseudovirus neutralization [5]: 0.013 µg/mL
- IC50 (µg/mL), pseudovirus neutralization [6]: > 50 µg/mL
- IC50 (µg/mL), pseudovirus neutralization [7]: > 50 µg/mL
- IC50 (µg/mL), pseudovirus neutralization [8]: > 50 µg/mL
- IC50 (µg/mL), pseudovirus neutralization [9]: 0.007 µg/mL
- IC50 (µg/mL) neutralization [10]: 19.1 µg/mL
- IC50 (µg/mL) neutralization [11]: 0.018 µg/mL
- IC50 (µg/mL) neutralization [12]: 0.006 µg/mL
- IC50 (µg/mL), pseudovirus neutralization [13]: 1.29 µg/mL
- IC50, pseudovirus neutralization [14]: 0.033 µg/mL
- IC50 (ug/ml), neutralizing activity [32]: 1.68 µg/mL
- IC50, pseudovirus neutralization [17]: 0.008 µg/mL
- IC50, pseudovirus neutralization [18]: 0.493 µg/mL
- IC50, pseudovirus neutralization [19]: 0.009 µg/mL
- IC50, pseudovirus neutralization [20]: > 50 µg/mL
- IC50, pseudovirus neutralization [21]: 0.008 µg/mL

Substance: PGT-143 (4980_N08) (antibody)
- neutralization IC50 [1]: 0.031 µg/mL
- neutralization IC50 [2]: 0.074 µg/mL
- neutralization IC50 [3]: > 50 µg/mL

Substance: PGT-142 (4995_E20) (antibody)
- neutralization IC50 [1]: 0.019 µg/mL
- neutralization IC50 [2]: 0.046 µg/mL
- neutralization IC50 [3]: > 50 µg/mL

Substance: PGV04 (antibody)
- IC50 (µg/mL), pseudovirus neutralization [25]: 0.201 µg/mL
- IC50 (µg/mL), pseudovirus neutralization [26]: 0.088 µg/mL
- neutralization IC50 [1]: 0.083 µg/mL
- neutralization IC50 [2]: 0.78 µg/mL
- neutralization IC50 [3]: 0.168 µg/mL

Substance: PGT-144 (4970_K22) (antibody)
- neutralization IC50 [1]: 3.84 µg/mL
- neutralization IC50 [2]: 1.58 µg/mL
- neutralization IC50 [3]: > 50 µg/mL

Substance: VRC01 (antibody)
- IC50, pseudovirus neutralization [26]: 0.087 µg/mL
- neutralization IC50 [1]: 0.055 µg/mL
- neutralization IC50 [2]: 0.065 µg/mL
- neutralization IC50 [3]: 0.553 µg/mL
